According to FireProtDB (doi:10.1021/ja068849o):

B1: Outer membrane protein A, P0A910 (parent)
chain: MKKTAIAIAVALAGFATVAQAAPKDNTWYTGAKLGWSQYHDTGFINNNGPTHENQLGAGAFGGYQVNPYVGFEMGYDWLGRMPYKGSVENGAYKAQGVQLTAKLGYPITDDLDIYTRLGGMVWRADTKSNVYGKNHDTGVSPVFAGGVEYAITPEIATRLEYQWTNNIGDAHTIGTRPDNGMLSLGVSYRFGQGEAAPVVAPAPAPAPEVQTKHFTLKSDVLFNFNKATLKPEGQAALDQLYSQLSNLDPKDGSVVVLGYTDRIGSDAYNQGLSERRAQSVVDYLISKGIPADKISARGMGESNPVTGNTCDNVKQRAALIDCLAPDRRVEIEVKGIKDVVTQPQA

Variants of: B1
Conditions: Escherichia coli (strain K12); pH 9.2; 37 °C; Urea; Fluorescence; Glycine 10 mM; reversible: Yes; structure 1QJP; whole UniProt chain shown

Y76A
ddG of mutation (higher = less stable): 2.5 kcal/mol
denaturant m value: 2.2 kcal/mol/M
denaturant midpoint (higher = more stable): 3.1 M
unfolding free energy: 6.8 kcal/mol

Y76A W78A
ddG of mutation (higher = less stable): 4.2 kcal/mol
denaturant m value: 2.4 kcal/mol/M
denaturant midpoint (higher = more stable): 2.1 M
unfolding free energy: 5.1 kcal/mol

W36A
ddG of mutation (higher = less stable): 2 kcal/mol
denaturant m value: 2.4 kcal/mol/M
denaturant midpoint (higher = more stable): 3.1 M
unfolding free energy: 7.3 kcal/mol

Y189A F191A
ddG of mutation (higher = less stable): 1.2 kcal/mol
denaturant m value: 3.1 kcal/mol/M
denaturant midpoint (higher = more stable): 2.6 M
unfolding free energy: 8.1 kcal/mol

W78A
ddG of mutation (higher = less stable): 2 kcal/mol
denaturant m value: 2.4 kcal/mol/M
denaturant midpoint (higher = more stable): 3.1 M
unfolding free energy: 7.3 kcal/mol

F144A Y162A
ddG of mutation (higher = less stable): 5.3 kcal/mol
denaturant m value: 2.1 kcal/mol/M
denaturant midpoint (higher = more stable): 1.9 M
unfolding free energy: 4 kcal/mol

W164A
ddG of mutation (higher = less stable): 3.1 kcal/mol
denaturant m value: 2.2 kcal/mol/M
denaturant midpoint (higher = more stable): 2.8 M
unfolding free energy: 6.2 kcal/mol

Y150A
ddG of mutation (higher = less stable): 2.7 kcal/mol
denaturant m value: 2.4 kcal/mol/M
denaturant midpoint (higher = more stable): 2.8 M
unfolding free energy: 6.6 kcal/mol

F144A Y162A W164A
ddG of mutation (higher = less stable): 6.8 kcal/mol
denaturant m value: 2 kcal/mol/M
denaturant midpoint (higher = more stable): 1.2 M
unfolding free energy: 2.5 kcal/mol

F144A W164A
ddG of mutation (higher = less stable): 3.9 kcal/mol
denaturant m value: 2.3 kcal/mol/M
denaturant midpoint (higher = more stable): 2.4 M
unfolding free energy: 5.4 kcal/mol

W28A
ddG of mutation (higher = less stable): 3.6 kcal/mol
denaturant m value: 1.9 kcal/mol/M
denaturant midpoint (higher = more stable): 3 M
unfolding free energy: 5.7 kcal/mol

W28A Y64A
ddG of mutation (higher = less stable): 6.4 kcal/mol
denaturant m value: 1.9 kcal/mol/M
denaturant midpoint (higher = more stable): 1.6 M
unfolding free energy: 2.9 kcal/mol

Y189A
ddG of mutation (higher = less stable): 0.2 kcal/mol
denaturant m value: 3.1 kcal/mol/M
denaturant midpoint (higher = more stable): 2.9 M
unfolding free energy: 9.1 kcal/mol

F191A
ddG of mutation (higher = less stable): 2.4 kcal/mol
denaturant m value: 2.3 kcal/mol/M
denaturant midpoint (higher = more stable): 3 M
unfolding free energy: 6.9 kcal/mol

Y162A W164A
ddG of mutation (higher = less stable): 5.7 kcal/mol
denaturant m value: 2.2 kcal/mol/M
denaturant midpoint (higher = more stable): 1.6 M
unfolding free energy: 3.6 kcal/mol

F72A
ddG of mutation (higher = less stable): 1.2 kcal/mol
denaturant m value: 2.3 kcal/mol/M
denaturant midpoint (higher = more stable): 3.5 M
unfolding free energy: 8.1 kcal/mol

Y64A
ddG of mutation (higher = less stable): 3.8 kcal/mol
denaturant m value: 2.2 kcal/mol/M
denaturant midpoint (higher = more stable): 2.6 M
unfolding free energy: 5.5 kcal/mol
